Assay results reported in patent US20170312343A1, “Uses of FAHD1” (UNIVERSITÄT INNSBRUCK, priority 2014, published 2017).

T1: FAHD1 (Homo sapiens, UniProt Q6P587)
T1 construct: His-tag (N); S-tag (N); made in house; host or cells: E. coli
T1 sequence (Q6P587 25-221): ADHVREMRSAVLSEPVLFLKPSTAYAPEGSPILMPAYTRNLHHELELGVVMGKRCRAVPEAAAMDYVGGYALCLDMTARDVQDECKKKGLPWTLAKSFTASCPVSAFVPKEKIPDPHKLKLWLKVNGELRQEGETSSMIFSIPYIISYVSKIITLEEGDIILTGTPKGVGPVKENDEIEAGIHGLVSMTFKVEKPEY


Tests used:
FAHD1 = target: T1, FAHD1; assay: oxalate inhibitor assay (oxaloacetate decarboxylase assay); format: biochemical; conditions: purified recombinant wild-type FAHD1, room temperature, pH 7.4, absorbance 255 nm, FIG. 2C; read-out: IC50, inhibition of oxaloacetate decarboxylation by FAHD1
Procedure: (§1) N-terminally His- and S-tagged versions of human wild-type FAHD1 and a double mutant (Asp102Ala, Arg106Ala) were recombinantly expressed in E. coli and purified as reported previously (Pircher et al., J Biol Chem, 2011, 286(42)).
(§2) For measurement of oxaloacetate decarboxylase rates, 1 ml samples of 25 μM to 1 mM oxaloacetate in assay buffer (50 mM Tris-HCl, 100 mM KCl, 1 mM MgCl2, pH 7.4) containing purified FAHD1, FAHD1mut (3-60 μg, depending on substrate concentration) or no enzyme were prepared. Samples were incubated at room temperature and analysed in regular time intervals by measuring absorbance (infinite M200, Tecan) at 255 nm (ε=1070 M^−1 cm^−1) in disposable UV-cuvettes (Brand). Reaction mixtures containing no substrate were used as blank. For the oxalate inhibitor assay, the sample buffer was supplemented with 200 μM sodium oxalate. All rates were corrected for auto-decarboxylation under assay conditions.

[1] = oxaloacetate decarboxylase assay, photometric, enzyme kinetics of purified FAHD1; format: biochemical, human; conditions: purified wild-type enzyme, room temperature, pH 7.4, FIG. 2A
Procedure: as §1, §2

| Molecule | IC50 (FAHD1) [µM] | Km [1] [µM] | Vmax of oxaloacetate degradation [1] [µmol/min/mg] |
| --- | --- | --- | --- |
| O=C([O-])C(=O)[O-].[Na+].[Na+] [oxalate, sodium oxalate] | ~20 |  |  |
| fumarylacetoacetate hydrolase domain containing protein 1 (protein, UniProt Q6P587 25-221, looked up, recombinant human wild-type FAHD1 expressed in E. coli) Oxaloacetate tautomerase …: ADHVREMRSAVLSEPVLFLKPSTAYAPEGSPILMPAYTRNLHHELELGVVMGKRCRAVPEAAAMDYVGGYALCLDMTARDVQDECKKKGLPWTLAKSFTASCPVSAFVPKEKIPDPHKLKLWLKVNGELRQEGETSSMIFSIPYIISYVSKIITLEEGDIILTGTPKGVGPVKENDEIEAGIHGLVSMTFKVEKPEY |  | 32 | 0.21 |
